The source of these data is article PMC6430795, “Complex formation of APP with GABAB receptors links axonal trafficking to amyloidogenic processing” (Nature Communications, 2019).

One test deals with Myc-GB1a (UniProt Q9Z0U4).
For the next test, the target named is T1, HA-PIANP on tsA201 cells (UniProt Q6P1B3 28-278).
T1 construct: PILRα-associated neural protein; cDNA from OriGene in pCMV6 with an HA-tag insertion after amino acid 27; source: tsA201 cells, transfected, on cells; not shown: HA, internal (after residue 27), kept
T1 sequence (looked up): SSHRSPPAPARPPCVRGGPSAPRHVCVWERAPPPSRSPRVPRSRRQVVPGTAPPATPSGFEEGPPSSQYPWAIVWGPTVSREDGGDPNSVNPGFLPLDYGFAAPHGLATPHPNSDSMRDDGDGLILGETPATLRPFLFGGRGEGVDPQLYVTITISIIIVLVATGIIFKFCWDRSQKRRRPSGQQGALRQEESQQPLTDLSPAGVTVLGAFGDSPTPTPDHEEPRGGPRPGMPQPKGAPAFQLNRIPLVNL
In words: immunostaining of cells or tissue; cell surface binding: transfected tsA201 cells incubated 30 min at room temperature with 0.2 to 2000 nM purified Myc-SD1/2 in OptiMEM, fixed, bound SD1/2 stained with anti-c-Myc and put into ratio with the expressed protein; apparent KD from a Hill equation with a coefficient of 1. Conditions: one partner purified.

The next test concerns the target T2, APP on tsA201 cells (UniProt P05067-4 18-695).
T2 construct: expression was read with goat anti-APP; source: tsA201 cells, transfected, on cells
The description is as above. Conditions: one partner purified.

Another test concerns the target T3, AJAP-1 on tsA201 cells (UniProt A2ALI5 44-412).
T3 construct: adherens junction-associated protein 1; cDNA from Source BioScience in pcDNA3; source: tsA201 cells, transfected, on cells
T3 sequence (looked up): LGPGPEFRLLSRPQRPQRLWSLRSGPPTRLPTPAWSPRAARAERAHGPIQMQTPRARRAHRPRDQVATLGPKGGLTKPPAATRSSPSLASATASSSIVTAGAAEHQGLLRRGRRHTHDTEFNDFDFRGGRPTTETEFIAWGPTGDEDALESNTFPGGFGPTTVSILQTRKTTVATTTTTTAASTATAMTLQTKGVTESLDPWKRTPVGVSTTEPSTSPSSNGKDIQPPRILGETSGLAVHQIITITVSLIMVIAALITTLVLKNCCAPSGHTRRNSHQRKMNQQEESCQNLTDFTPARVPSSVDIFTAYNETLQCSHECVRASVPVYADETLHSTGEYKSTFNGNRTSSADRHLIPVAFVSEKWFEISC
The test is described as above. Conditions: one partner purified.

Consider “APP (APP695, pCAX-APP695) (from UniProt P05067-4 18-695) (natural protein)”, for which, in the test with Myc-GB1a, the reduction of BACE1-mediated Aβ40 secretion into the medium of HEK293 cells in the presence of GB1a/2 receptors, ELISA 32 h post-transfection is 77%; the reduction of the APP-βCTF/APP-FL ratio (BACE1 cleavage of APP) in HEK293 cells in the presence of GB1a/2 receptors, immunoblot densitometry was determined as 60%; the reduction of the sAPPβ/APP-FL ratio (BACE1 cleavage of APP) in HEK293 cells in the presence of GB1a/2 receptors, immunoblot densitometry is 57%.

B1: recombinant SD1/2 protein (sushi domains 1 and 2 of GB1a) (domain or fragment, UniProt Q9Z0U4 20-158, looked up)
chain: QTPNATSEGCQIIHPPWEGGIRYRGLTRDQVKAINFLPVDYEIEYVCRGEREVVGPKVRKCLANGSWTDMDTPSRCVRICSKSYLTLENGKVFLTGGDLPALDGARVEFRCDPDFHLVGSSRSVCSQGQWSTPKPHCQV
notes: the two N-terminal sushi domains (SD1 and SD2) of the GABAB receptor subunit GB1a; the NMR samples are called unlabeled recombinant SD1/2; also called Myc-SD1/2; Myc-SDI/II
As to B1, the Kd with HA-PIANP on tsA201 cells amounted to 29.1 nM; in the test with APP on tsA201 cells, 188 nM; with AJAP-1 on tsA201 cells it was 6.4 nM.
